Laboratory results from the nanobody polyreactivity screen of Harvey et al. (2022).

Test: yeast display, Sf9 membrane polyspecificity reagent, FACS + sequencing; frameworks hold sequencing errors
Summary of the method: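 A nanobody's polyreactivity label depends on the gate it was sorted from. Yeast display cells were stained with 10% biotinylated, detergent-solubilized Sf9 membrane reagent for 1 hour at 4 °C, enriched on streptavidin microbeads and sorted by FACS. The low and high (top ~1%) gates were set on anti-HA fluorescence for expression and streptavidin fluorescence for reagent binding.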

Sequence	polyreactivity (PSR sort gate)
QVQLVESGGGLVQAGGSLRLSCAASGITFYDYTMVWYRQAPGKESELVAVITSAGSTYYADSVKGRFTISRDNAKNTVYLQMNSLKPEDTAVYYCAAVIVSRGRKYRLDYWGQGTQVTVSS	high polyreactivity
QVQLVESGGGLVQAGGSLRLSCAASGYTFVIYAMGWYRQAPGKERELVAAITTIGGRTYYADSVKGRFTISRDNAKNTVYLQMNSLKPEDTAVYYCAADIRSYRLYDGGYWGQGTQVTVSS	low polyreactivity
QVQLVESAGGLVQAGGSLRLSCDASGSIFTTNAMGWYRQAPGKERELVAAITSTAGSTYYADSVKGRFKISRDNAKNTVYLQMNSLKPEDTAVYYCAATYNVGVKAWYDYWGQGSQVTVSS	high polyreactivity
QVQLVETGGGLVQAGGSLRLSCAASGIIFDGNTMGWYRQAPGKERELVAGIDFSDDSTNYADSVKGRFTISRDNAKNTVYLQMNSLKPEDTAVYYCAADTRSPSAHEVDYWGQGTQVTVSS	low polyreactivity
QVQLVESGGGLVQAGGSLRLSCAASGSTFWYAMGWYRQAPGKERELVAAITARGGRTYYADSVKGRFTISRDNAKNTVYLQMNSLKPEDTAVYYCAAVSTGIGARYNYWGQGTQVTVSS	high polyreactivity
QVQLVESGGGIVQAGGSLRLSCAASGIIFGYYAMGWYRQAPGKERELVAAISRRGGSTYYADSVKGRFTISRDNATITVYLQMHSLKPEDSAVSYCAAVELRLSTPDMESWVQGTQVTVSS	high polyreactivity
QVQLVESGGGLVQAGGSLRLSCAASGLTFNLYAMGWYRQAPGKEWELVAAITRNGGSTYYADSVKGPFTISRDNAKNSVYLELNSLKPEDTAVYYCATGWLGTPYGYRRFGYWGQGTQVTVSS	high polyreactivity
QVQLVESGGGLVQAGGSLRLICAASGRIFRIYAIGWYRQAPGKERELVARITYSGGSTYYADSVKGRFTISRDNAKNSVYLLMNSLKPEETAVYYCAADWLGYQYGYWGQGTQVTVSS	low polyreactivity
QVQLVESGGGLVQAGGSLRLSCAASGSIFLQNAMGWYRQAPGKERELVARITTSGGSTYYADSVKGRFTISRDNAKNTVYLPMNSQKPEDTAVYYCAVRSRRQRGGIRGFDYGGQGTQVTVSS	high polyreactivity
QVQLVESGGGLVQAGASLRLSCAASGRIFHHNVMGWYIQAPGKERELVAAISQSGGSTYYADSVKGRFTISRDNAKNTVYLQMNSLKPEDTAVYYCNDGAAGRRYNYWGQGTQVTVSS	low polyreactivity
QVQLVESGGCLVQAGGSLRLSCAASGSIFRYYAKGWYRQAPGKERELVAAIRVSTGSTSYADSVKGRFTISRDTAKNTVYLQMNSLKPEDTAFYYCNARSRQVIAYRQHNYWGQGTQVTVSS	high polyreactivity
QVQLVESGGGLVQAGGSLRLSCAASGSTFGGNDMGWYRQAPGKERELVAAISSGTSTNYADSVKGRFTISRDNAKNTVYLQMNSLKPEDTAVYYCAAKWHVRGRGARYRYDYDYWGQGTQVTVSS	low polyreactivity
QVQLVESGGGLVQAGGSLRLSCAASGRTFRYNAMGWYRPAPGKERELVAAITKSGGTTYYADSVKGRFTISRDNAKNTVYLQMNSLKPEDTAVYYCNAYRVVHPWEYDYWGQGTQVTVSS	high polyreactivity
QVQHVESGGGLDQAGGSLRLRCAAYGFTFSFYAMGWYRQEPGKERELVAAISYSGGITYYADSVKGRFTISRDNAKNTVYLQMNSLKPEDTAVYYCAAVPYYSKGSSLYNSGNNYWGQGTQVTVSS	low polyreactivity
QVQLVESGGGFVQAGGSLRLSCAASGRTFRKYAMGWYRQAPGKERELVAAITSSGGSTYYADSVKGRFTISRDNAKNTVYLQMNSLKPEDTAVYYCAAGRHSEDNYWGQGTQVTVSS	high polyreactivity
QVQLVESGGGLVQAGGSLRLSCAASGSIFHPYAMGWYRQAPGKERELVAAISSSTGRTYYADSVKGRFTISRDNAKNTVYLQMNSLKPEDTAVYYCAARKKYSEFDYWGQGTQVTVSS	high polyreactivity
QVQLVESVGGLVQAGGSLRLSCAASGRTFHYYVMGWYRQEPGKEGELVAAISRSGGNTYYADSVKGRFTISRDNAQNTVYLQMNSLKPEDTADYYCAAALSAYVKWDYYYWGQGTQVTVSS	high polyreactivity
QVQLVESGGGLVQAGGSLRLSCAASGITSGTYAMGWYRQAPGKERELVAAISSSGGRTYYADSVKGRFTISRDNAKNTVYLQMTSLKPEDTAVSYCAAETDTTYAFYWGQGTQVNVSS	high polyreactivity
QVQLVESGGGLVQAGGSLRLSCAASGSTFFVNTMGWYRQAPGKERELVAAIRRRGGSTYYADSVKGRFTISRDNAKNTVYLQMNSLIPEDTAVYYCAADSYSRYYYWGQGTQVTVSS	high polyreactivity
QVQLVESGGGLVQAGGSLRLSCAASGRTFQGKAMGWYRQAPGKERELVAAISSSGGRTYYADSVKGRFTISRDNAKNTVYLQMNSLKPVDTSVYYCAARNYFWGQGTQVTVSS	low polyreactivity
QVQLVESGGGLVQAGGSLRLSCAASGRTFTAYAMGWYRQAPGKERELVASISSGVTYADSVKGRFTISRDNAKNTVYLQMTSLKPEDTAVYYCAARLWYVQGYVPYVHHRFDYWGQGTQVTVSS	low polyreactivity
QVQLVESGGGLVQAGGSLRLICAASGITFTGYAMGWYRQAPGKERELVAAITRRGGRTYYADSVKGRFTISRDNAKNTVYLQMNSLKPEDTAVYYCARDNGSPYHYYYWGQGTQVTVSS	high polyreactivity

Sequence	polyreactivity (PSR sort gate)
QVQLVESGGGLVQAGGSLRLSCAASGSTFEVYTMGWYRQAAGKERELVADITWSGGNTYYADSVKGRFTISRDNAKNTVYLQMNSLKPEDTAVYYCAADYYHKTVYWYDYWGQGTQVTVSS	low polyreactivity
QVQLVESGGGLVQAGGSLRLSCAASGSIFGANTMGWYRQAPGKERELVAAISSGGNTYYADSVKGRFTISRDNAKNTVYLQMNSLKPEDTAVYYCAVGAYWYFGFVSYGYDYCGQGTQVTVSS	low polyreactivity
QVQLVESGGGLVQAGGSLRLSCAASGRTFVTNAMGWYRQAPGKERELVAAISSSGGSTYYADSVKGRFTISRDKAKNTVYLQMNSLKPEDTAVYYCAVGGQTKGQYDYWGQGTQVTVSS	low polyreactivity
QVQLVESGGGLVQAGGSLRLSFAASGITFGYYDMGWYRQAPGKERELVASISSGGNTNYADSVKGRFTISRDNAKNTVYLQMNSLKPEDTAVYYCNVRYWGFYDYDYWGQGTQVTVSS	low polyreactivity
QVQLVESGGGLVQAGGSLRLSCAASGSIIVRYAMGWYRQAPGKERALVATITFRDTSTYYADSVKGRFTITRDNAKNTVYLQMNSLKPEDTAVYYCAAVRADLWDIARYDYWGQGTQVTVSS	low polyreactivity
QVQLVESGGGLVQAGGSLRLSCAASGRTFYRKAMGWYRQAPGKERELVAAITYGGGSTYYADSVKGRFTISRDNAKNTVYLQMNSLKPEDTAVYYCNALRNVRTGRTQVLSYYWGQGTQVTVSS	high polyreactivity
QVQLVESGGGLVQAGGSLRLSCAASGSTFVLDDMGWYRQAPGKERELDAAISYSGDSTNYAASVKGRFTISRDNAKNTVYLQMNSLKPEDTAVYYCNARQRTYYRTHRIRHKGNGYWGQGTQVTVSS	low polyreactivity
QVHLVESGGGLVKAGGSLRLSCAAYGRIFSYNDMGWYRQSPGKDRELVAAISSSGGRTYYADSVKGSFTISRDNAKNTVYLQMNSMKPEDTALYYCNVLGYSYWGQGTQVTVSS	high polyreactivity
QVQLVDSGGGLVQAGGSLRLSCAASGYTILSYVMGWNRQAPGKERELVAAIRRSGGSTYYADSVKGRFTISRDNAKNTVYLQMNSLKPEDTAVYYCNAPHHRYDWGQGTQVTVSS	high polyreactivity
QVQLVESGGGLVQAGGSLRLSCAASGRTFRIYAMGWYRQAPGKEREFVAAITWSGGRTYYADSVKGRFTISRDNAKNTVYLQMNSLKPEDTAVYYCAADPTYLRTLRFGSYDYWGQGTQVTVSS	high polyreactivity
QVQLVQSGGGLVQAGGSLRLSCAASGFIIWDNAMGCYRQAPGKERELVAAISDSGGDTYYADSVKGRFTISRDNAKNTVYLQMNSLKPEDTAVYYCASDVELWVFRGDQYDYWGQGTQVTVSS	low polyreactivity
QVQLVESGGGLVQAGGSLRLSCAASGLTLRENAMGWYRQAPGKERELVAAITNGGSTYYADSVKGRFTISRDNAKNTVYLQMNSLKPEDTAVYYCAADNLTYVISWDSDYWGQGTQVTVSS	low polyreactivity
QVQLQESGGGMVQAGGSLRLSRATSGTISATKGMCRYRQAPGKERELVAGINYGGNTNYADNVKGRFTISRDNAKNTVYLQMNSLKPGDTAVYYCAAEPRGVTDLGYWGQGTQVTVSS	low polyreactivity
QVQLVESGGGLVQAGGSLRLSCAASGRTFDSYTMGWYRQAPGKERELVADITFTGGSTYYADSVKGRFTISRDNAKNTVYLQMNSLKPEDTAVYYCNADREYKWYFRYDYWGQGTQVTVSS	low polyreactivity
QVQLVESGGGLVQAGGSLRLSCAASGITFDYYGMGWYRQAPGKERALCASITSGGSTNYADSVKGRFTISRDNAKNSVYLQMNSLKPEDTAVYYCAADGYGGYYRGTYYTVYFWGQGTQVTVSS	low polyreactivity
QVQLVESGGGLVQAGGSLRLSCAASGRIFARYVMGWYRQAPGKERELVAAISPSGSRTYYADSVKGRFTISRDNAKNTVYLQMNSLKPEDTAVYYCAATGVYTKNPRGMDYWGQGTQVTVSS	high polyreactivity
QVQLVESGGGLVQAGGSLRLSCAASGRTFRHNAMGWYRQAPGKERELVAAISKSGGRTYYADSVKGRFTISRDNAKNTVYLQMNSLKPEDTAVYYCAAPLYVSTSGEVGYWGQGTQVTVSS	high polyreactivity
QVQLVESGGGLVQAGGSLRLSCAASGRIFSGNTMGWYRQAPGKERELVAAISKSGGRTYYADSVKGRFTISRDNAKNTVYLQMNSLKPEDTAVYYCNADYRSHYLYDYWGQGTQVTVSS	low polyreactivity
QVQLVESGGGLVQAGGSLRLSCAASGRIFDNYVMGWYRQAPGKERELVAAISSGGGTYYADSVKGRFTISRDNAKNTVYVQMNSLKPEDTAVYYCAKRRVYDRSFGRYDYWGQGTQVTVSS	low polyreactivity
QVQLVESGGGLVQAGGSLRLSCAASGSIFRGYTMGWYIQAPGKERELVAAISTRGGSTYYADSVKGRFTISRDNSKNTVYLQMNSLKPEDTAVYYCNARSRGRASGYDYWGQGTQVTVSS	high polyreactivity
QVQLVESGGGLVQAGGSLSLSCAASGFILDYNTKGWYRQAPGKEREVVAAISSSGDTTYYADSVKGRFTISRDNAKYTVYLQMNSLKPEDTAVYYCAREYGDGYEYWVQGTQVTVSS	low polyreactivity
